Data on 5 molecules can be found in PMC2871031 (Structure (London, England : 1993), 2010).

In data set [1] the target is ClpA-Δ10 (linker deletion mutant, residues 145 to 154 deleted) (E. coli) (UniProt P0ABH9).
In data set [2] the target is ClpA (wild type), ATPγS-assembled hexamer (E. coli) (UniProt P0ABH9).
Data set [3] deals with ClpA-Δ153 (N-domain-deleted form of ClpA) (E. coli) (UniProt P0ABH9).
The target of data set [4] is ClpA-Δ15 (linker deletion mutant, residues 145 to 159 deleted) (E. coli) (UniProt P0ABH9).
Data set [5] deals with the molecule itself. Nature of the data set: cryo-electron microscopy with 2D averaging and variance maps of side-views.
Data set [6] deals with T1, ClpP peptidase (tetradecamer) (UniProt P0A6G7 15-207). Described as above.
The data set “cryo-EM structure” concerns the molecule itself. Nature of the data set: cryo-EM structure.
The target in data set [7] is T1, ClpP peptidase (tetradecamer). Nature of the data set: cryo-EM structure.

What is called stoichiometry N is a count of units in the complex or per binding partner.

Values joined by “and” are separate entries in the source; they are usually repeats but may differ in a detail not shown here. Equal entries are not always repeated.

T1 sequence (P0A6G7 15-207): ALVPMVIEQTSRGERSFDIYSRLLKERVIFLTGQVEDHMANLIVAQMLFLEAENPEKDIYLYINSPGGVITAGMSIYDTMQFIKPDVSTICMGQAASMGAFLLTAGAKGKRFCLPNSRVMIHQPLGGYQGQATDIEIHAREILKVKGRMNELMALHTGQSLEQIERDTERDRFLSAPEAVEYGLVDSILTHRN

GFP-SsrA: the Km of GFP-SsrA degradation, 37 °C (μM protein monomer) was 1.7 in data set [1], 1.7 in data set [2], 1 in data set [3] and 1.5 in data set [4].

Turning to α-casein (natural protein), the Km of α-casein degradation, 37 °C (μM protein monomer) was 0.2 in data set [2] and 0.35 in data set [4].

B1: ClpA-Δ10 (linker deletion mutant, residues 145 to 154 deleted) (enzyme, E. coli, UniProt P0ABH9 1-758, looked up)
chain: MLNQELELSLNMAFARAREHRHEFMTVEHLLLALLSNPSAREALEACSVDLVALRQELEAFIEQTTPVLPASEEERDTQPTLSFQRVLQRAVFHVQSSGRNEVTGANVLVAIFSEQESQAAYLLRKHEVSRLDVVNFISHGTRKSQPNSEEQAGGEERMENFTTNLNQLARVGGIDPLIGREKELERAIQVLCRRRKNNPLLVGESGVGKTAIAEGLAWRIVQGDVPEVMADCTIYSLDIGSLLAGTKYRGDFEKRFKALLKQLEQDTNSILFIDEIHTIIGAGAASGGQVDAANLIKPLLSSGKIRVIGSTTYQEFSNIFEKDRALARRFQKIDITEPSIEETVQIINGLKPKYEAHHDVRYTAKAVRAAVELAVKYINDRHLPDKAIDVIDEAGARARLMPVSKRKKTVNVADIESVVARIARIPEKSVSQSDRDTLKNLGDRLKMLVFGQDKAIEALTEAIKMARAGLGHEHKPVGSFLFAGPTGVGKTEVTVQLSKALGIELLRFDMSEYMERHTVSRLIGAPPGYVGFDQGGLLTDAVIKHPHAVLLLDEIEKAHPDVFNILLQVMDNGTLTDNNGRKADFRNVVLVMTTNAGVRETERKSIGLIHQDNSTDAMEEIKKIFTPEFRNRLDNIIWFDHLSTDVIHQVVDKFIVELQVQLDQKGVSLEVSQEARNWLAEKGYDRAMGARPMARVIQDNLKKPLANELLFGSLVDGGQVTVALDKEKNELTYGFQSAQKHKAEAAH
On to B1, for which the “stoichiometry N” value in data set [5] was 6 subunits; in data set [6], 1 ClpA hexamers per ClpP tetradecamer and 2 ClpA hexamers per ClpP tetradecamer.

B2: ClpA (wild type), ATPγS-assembled hexamer (enzyme, E. coli, UniProt P0ABH9 1-758, looked up)
chain: MLNQELELSLNMAFARAREHRHEFMTVEHLLLALLSNPSAREALEACSVDLVALRQELEAFIEQTTPVLPASEEERDTQPTLSFQRVLQRAVFHVQSSGRNEVTGANVLVAIFSEQESQAAYLLRKHEVSRLDVVNFISHGTRKDEPTQSSDPGSQPNSEEQAGGEERMENFTTNLNQLARVGGIDPLIGREKELERAIQVLCRRRKNNPLLVGESGVGKTAIAEGLAWRIVQGDVPEVMADCTIYSLDIGSLLAGTKYRGDFEKRFKALLKQLEQDTNSILFIDEIHTIIGAGAASGGQVDAANLIKPLLSSGKIRVIGSTTYQEFSNIFEKDRALARRFQKIDITEPSIEETVQIINGLKPKYEAHHDVRYTAKAVRAAVELAVKYINDRHLPDKAIDVIDEAGARARLMPVSKRKKTVNVADIESVVARIARIPEKSVSQSDRDTLKNLGDRLKMLVFGQDKAIEALTEAIKMARAGLGHEHKPVGSFLFAGPTGVGKTEVTVQLSKALGIELLRFDMSEYMERHTVSRLIGAPPGYVGFDQGGLLTDAVIKHPHAVLLLDEIEKAHPDVFNILLQVMDNGTLTDNNGRKADFRNVVLVMTTNAGVRETERKSIGLIHQDNSTDAMEEIKKIFTPEFRNRLDNIIWFDHLSTDVIHQVVDKFIVELQVQLDQKGVSLEVSQEARNWLAEKGYDRAMGARPMARVIQDNLKKPLANELLFGSLVDGGQVTVALDKEKNELTYGFQSAQKHKAEAAH
For B2, the “stoichiometry N” value is 6 subunits in “cryo-EM structure” and 1 ClpA hexamers per ClpP tetradecamer in data set [7].

B3: ClpA-Δ15 (linker deletion mutant, residues 145 to 159 deleted) (enzyme, E. coli, UniProt P0ABH9 1-758, looked up)
chain: MLNQELELSLNMAFARAREHRHEFMTVEHLLLALLSNPSAREALEACSVDLVALRQELEAFIEQTTPVLPASEEERDTQPTLSFQRVLQRAVFHVQSSGRNEVTGANVLVAIFSEQESQAAYLLRKHEVSRLDVVNFISHGTRKEEQAGGEERMENFTTNLNQLARVGGIDPLIGREKELERAIQVLCRRRKNNPLLVGESGVGKTAIAEGLAWRIVQGDVPEVMADCTIYSLDIGSLLAGTKYRGDFEKRFKALLKQLEQDTNSILFIDEIHTIIGAGAASGGQVDAANLIKPLLSSGKIRVIGSTTYQEFSNIFEKDRALARRFQKIDITEPSIEETVQIINGLKPKYEAHHDVRYTAKAVRAAVELAVKYINDRHLPDKAIDVIDEAGARARLMPVSKRKKTVNVADIESVVARIARIPEKSVSQSDRDTLKNLGDRLKMLVFGQDKAIEALTEAIKMARAGLGHEHKPVGSFLFAGPTGVGKTEVTVQLSKALGIELLRFDMSEYMERHTVSRLIGAPPGYVGFDQGGLLTDAVIKHPHAVLLLDEIEKAHPDVFNILLQVMDNGTLTDNNGRKADFRNVVLVMTTNAGVRETERKSIGLIHQDNSTDAMEEIKKIFTPEFRNRLDNIIWFDHLSTDVIHQVVDKFIVELQVQLDQKGVSLEVSQEARNWLAEKGYDRAMGARPMARVIQDNLKKPLANELLFGSLVDGGQVTVALDKEKNELTYGFQSAQKHKAEAAH
On to B3, for which the “stoichiometry N” value in data set [5] is 6 subunits; in data set [6], 1 ClpA hexamers per ClpP tetradecamer and 2 ClpA hexamers per ClpP tetradecamer.
